Our source for the Kd, koff and kon values is publication PMC2987821.

In general, Kd refers to the concentration at which binding is half-saturated. A higher Kd goes with weaker binding. As usually defined, the koff is the rate constant with which the complex falls apart. One may read the kon as the second-order rate constant of association.

The assay concerns the target Gp41-HR1 (HIV-1). Description: SPR. In general terms: SPR reads the build-up and loss of mass on a sensor chip optically.

B1: D5 IgG (antibody, V domains shown)
VH: QVQLVQSGAEVRKPGASVKVSCKASGDTFSSYAISWVRQAPGQGLEWMGGIIPIFGTANYAQAFQGRVTITANESTSTAYMELSSLRSEDTAIYYCARDNPTLLGSDYWGAGTLVTVSS
VL: DIQMTQSPSTLSASIGDRVTITCRASEGIYHWLAWYQQKPGKAPKLLIYKASSLASGAPSRFSGSGSGTDFTLTISSLQPDDFATYYCQQYSNYPLTFGGGTKLEIK
Regarding B1, the Kd was determined as 3.1 nM, the koff amounted to 0.00103 s⁻¹ and the kon came to 335000 M⁻¹ s⁻¹.
